This is an account of results in patent US10563220B2, “Compositions and methods for efficient targeting of transgenes” (priority 2015, dated 2020).

Assay [1] has as its system negative control hybrid maize. Kind of assay: PPO herbicide pre-emergence injury, negative control maize. It counts as in vivo. The following applies: 20 days after treatment. How it is done:
(§1) Transgenic F1 hybrid maize expressing APG6 operably linked to PPO H_N10 was assessed for tolerance to different seven different PPO herbicides: S-3100, Fomesafen, Acifluorfen, Lactofen, Flumioxazin, Sulfentrazone, and Saflufenacil. Pooled seed representing 5 unique events was planted in pots in a greenhouse along with hybrid maize seed as a negative control.
(§2) To test for pre-emergence herbicide tolerance, PPO herbicides were applied individually at one of two rates with six reps per treatment as follows: S-3100 (80 or 160 g ai/ha), fomesafen (Reflex®, 840 or 1680 g ai/ha), flumioxazin (Valor® SX, 210 or 420 g ai/ha), sulfentrazone (Spartan® 4L, 840 or 1680 g ai/ha), and saflufenacil (Sharpen®, 200 or 400 g ai/ha). Plants were rated for percentage of crop injury at 20 days after treatment, and maize seed was included as a negative control. […] Negative control maize plants had injury ratings ranging from 17.5% to 94.2%, with the exception of Saflufenacil, which is expected since this herbicide is marketed for used in conventional maize plants. Data are presented in Table 15 with standard error indicated as +/−.

In assay [2] the test system is transgenic F1 hybrid maize expressing APG6 operably linked to PPO H_N10. Kind of assay: PPO herbicide pre-emergence injury, maize with APG6-PPO H_N10. It counts as in vivo. Conditions: 20 days after treatment. How it is done: as §1, §2
Assay [3] concerns transgenic Brassica napus plants. Briefly: Dicamba tolerance in R0 Brassica napus, greenhouse. Conditions: R0 plants with one copy with vector backbone or two copies, tolerant = injury 20% or less, 21 days.
Procedure: Brassica napus variety 65037 Restorer line was used for Agrobacterium-mediated transformation and R0 plants were grown in the greenhouse.
Dicamba tolerance was assessed using R0 plants with one copy of transgene with vector backbone or two copies of transgene. Dicamba tolerance was designated as dicamba injury of 20% or less under greenhouse conditions.
Dicamba tolerance was assessed on R0 plants with a one copy of the transgene. Plants were sprayed in the greenhouse with dicamba (Clarity) at 1 lb ae/acre (2× rate), and dicamba tolerance was determined 14 to 21 days later.
Assay [4] has as its system R1 transgenic soybean plants. Kind of assay: R1 soybean greenhouse dicamba injury. Conditions: dicamba 1120 g ai/ha at V4; rated 10 days after treatment; DMO SEQ ID NO:18.
Source text: Transgenic soybean plants were generated with two DNA constructs that were identical except for the APG6 CTP. The first DNA construct had APG6 (SEQ ID NO:1) operably linked to DMO (SEQ ID NO:18). The second DNA construct had the optimized APG6 (SEQ ID NO:2) operably linked to DMO (SEQ ID NO:18). Each DNA construct was used to transform A3555 soybean by Agrobacterium mediated transformation methods. Following transformation, R0 transgenic plants containing a single copy of the transgene were identified by PCR assay. Single-copy R0 plants were grown in greenhouse, and R1 seed was harvested. Ten R1 seeds per event for 4 events generated using each of the two DNA constructs and AG3555 seed was planted for evaluation of crop tolerance to post-emergence dicamba treatment under standard greenhouse growth conditions. Dicamba (Clarity) was applied at the V4 stage at 1120 g ai/ha. Crop injury ratings were taken 10 days after the treatment.
For assay [5], the system named is R1 transgenic cotton plants. Kind of assay: R1 cotton greenhouse dicamba injury. Conditions: dicamba 1120 g ai/ha at V4; rated 9 days after treatment; DMO SEQ ID NO:18.
Source text: Ten R1 seeds per event from 10 events for each construct and seed from DP393 cotton was planted to evaluate crop tolerance to post-emergence application of dicamba. Dicamba (Clarity) was applied at the V4 stage at 1120 g ai/ha. Crop injury percent ratings were taken 9 days after the treatment.
Assay [6] has as its system transgenic F1 hybrid maize plants. Briefly: F1 hybrid maize field trial of dicamba injury and yield. It counts as in vivo. On the procedure:
Dicamba tolerance was evaluated in a field trial for the transgenic F1 hybrid plants. The field trial included four treatments at two locations with two replications each. The four treatments were: (1) dicamba (Clarity®) applied at 2 lbs ae/acre (4×) at V2 followed by V4 followed by V8; (2) dicamba applied at 4 lbs at/acre (8×) at V2 followed by V4 followed by V8; (3) dicamba applied at 8 lbs at/acre (16×) at V2 followed by V4 followed by V8; and (4) dicamba applied at 16 lbs at/acre (32×) at V2 followed by V4 followed by V8. Crop injury was rated ten days after treatment and measured as crop injury percent per V-stage (CIPV2, CIPV4, or CIPV8). At the end of the season, grain was harvested and yield measured as bushels/acre. For both CIPV ratings and yield the least significant difference (LSD) at probability of 5% (p=0.05) was calculated.

Assay [7] deals with transgenic Brassica napus plants. Kind of assay: Dicamba tolerance in R1 Brassica napus, greenhouse, three sprays. The following applies: dicamba 2 lb ae/acre at planting, 1 lb ae/acre at V3, 1 lb ae/acre at first flower. The assay is classed as in vivo. From the text:
Plants were sprayed with 2 lb ae/acre dicamba (4×) on the day of planting, followed by 1 lb ae/acre dicamba (2×) dicamba at V3 stage, and 1 lb ae/acre dicamba (2×) dicamba at first flower (defined as >90% of plants having bolted and about 25% having at least one open flower). Injury ratings were taken seven days after each spray and expressed as percent injury compared to sprayed controls. For plants containing APG6+DMO, there were 9 progeny total from 2 events with dicamba injury ratings of ≤20% at each of the three rating periods. For plants containing RbcS+DMO, there were 77 plants across 16 events with dicamba tolerance of less than 20% at each of the three rating periods.

Assay [8] deals with transgenic R1 soybean plants. Briefly: PPO herbicide testing of R1 soybean (S-3100, greenhouse). The following applies: for Injury R1 stage / Injury V4 stage: ten days after treatment.
Procedure: Regenerated R0 transgenic plantlets were grown in the greenhouse, selfed, and R1 seed was collected. Transgenic R1 plants were sprayed in the greenhouse with one of three herbicide treatments applied at V4 and R1: (1) 5 grams ai/ha S-3100, (2) 10 grams ai/ha S-3100, or (3) 30 grams ai/ha S-3100. Crop injury ratings were assessed at ten days after treatment.
Assay [9] relates to R0 transgenic cotton plants. Briefly: S-3100 tolerance of R0 transgenic cotton, greenhouse. The following applies: 20 g ai/ha S-3100 at V2, three days after treatment.
Procedure: Regenerated R0 transgenic plantlets were grown in the greenhouse, and leaf samples taken from the resulting R0 plants were analyzed by PCR to identify plants containing a single copy of an event. Transgenic single-copy R0 plants, each representing a unique event, were sprayed in the greenhouse with the herbicide treatment 20 g ai/ha of S-3100 applied at V2 stage. Additionally, transgenic multi-copy (≥2 copies/plant) were sprayed in the greenhouse with the herbicide treatment 20 g ai/ha of S-3100 applied at V2 stage. Injury ratings were taken at three days after treatment.
Where [10] appears, read: dicamba 2 lbs ae/acre (4×) at V2 fb V4 fb V8.
[11] abbreviates: dicamba 4 lbs (8×) at V2 fb V4 fb V8.
[12] abbreviates: dicamba 8 lbs (16×) at V2 fb V4 fb V8.
[13] abbreviates: dicamba 16 lbs (32×) at V2 fb V4 fb V8.

With `CCOC(=O)COc1ncccc1Oc1cc(-n2c(=O)cc(C(F)(F)F)n(C)c2=O)c(F)cc1Cl` [S-3100, ethyl [3-2-chloro-4-fluoro-5-(1-methyl-6-trifluoromethyl-2,4-dioxo-1,2,3,4-tetrahydropyrimidin-3-yl)phenoxy]-2-pyridyloxyl acetate], the “% Injury negative control” value in [1] (80 g ai/ha, +/− standard error) is 19.2% +/− 2.39; in assay [1] (160 g ai/ha), 20.8% +/− 8.31. For the same molecule, the “% Injury PPO H_N10” value in [2] (80 g ai/ha, +/− standard error) turned out to be 3.3% +/− 1.67; in assay [2] (160 g ai/ha), 4.2% +/− 1.54.
Turning to `CC(C)N(C)S(=O)(=O)NC(=O)c1cc(-n2c(=O)cc(C(F)(F)F)n(C)c2=O)c(F)cc1Cl` [Saflufenacil, saflufenacil], the “% Injury negative control” value in [1] (200 g ai/ha) worked out at 0% +/− 0; in assay [1] (400 g ai/ha) it was 0.8% +/− 0.83. For the same molecule, the “% Injury PPO H_N10” value is 0% +/− 0 in assay [2] (200 g ai/ha) and 0.8% +/− 0.83 in assay [2] (400 g ai/ha).
For `Cc1nn(-c2cc(NS(C)(=O)=O)c(Cl)cc2Cl)c(=O)n1C(F)F` [Sulfentrazone, sulfentrazone], the “% Injury negative control” value in assay [1] (840 g ai/ha) is given as 17.5% +/− 11.6; in assay [1] (1680 g ai/ha) it was 20% +/− 11.11. Besides, the “% Injury PPO H_N10” value in assay [2] (840 g ai/ha) and in assay [2] (1680 g ai/ha) was 0% +/− 0 each time.
Consider `C#CCN1C(=O)COc2cc(F)c(N3C(=O)C4=C(CCCC4)C3=O)cc21` [Flumioxazin, flumioxazin], for which the “% Injury negative control” value in [1] (210 g ai/ha) is recorded as 30% +/− 6.32; in assay [1] (420 g ai/ha) it was 60.8% +/− 6.38. The “% Injury PPO H_N10” value in assay [2] (210 g ai/ha) stood at 1.7% +/− 1.05; in [2] (420 g ai/ha) it was 2.5% +/− 1.71.
Turning to “RbcS (SEQ ID NO: 5): Ps.RbcS-3C chloroplast transit peptide, SEQ ID NO:5 (MASMISSSAVTTVSRASRGQSAAMAPFGGLKSMTGFPVRKVNTDITSITSNGGRVKC; listed as Pisum sativum) [reference compound]”, the “2X Tolerant events” value in assay [3] (dicamba 1 lb ae/acre) is on record as 8/9. Moreover, the “4X Tolerant events” value in [3] (dicamba 2 lb ae/acre) was 7/7.
As for `CS(=O)(=O)NC(=O)c1cc(Oc2ccc(C(F)(F)F)cc2Cl)ccc1[N+](=O)[O-]` [Fomesafen, fomesafen], the “% Injury negative control” value stood at 75.8% +/− 5.83 in assay [1] (840 g ai/ha) and 94.2% +/− 1.54 in [1] (1680 g ai/ha). The “% Injury PPO H_N10” value was 4.2% +/− 1.54 in assay [2] (840 g ai/ha) and 5.8% +/− 0.83 in assay [2] (1680 g ai/ha).

B1: Optimized APG6: amino-terminal optimized variant of the APG6 CTP, SEQ ID NO:2 (protein)
chain: MASSTTTATAAFSGVVSVGTETRRIYSFSHLQPSAAFPAKPSSFKSLKLKQSARLTRRLDHRPFVVRC
For B1, in assay [4], the “Dicamba Injury, V4 stage” value worked out at 2.7%. Moreover, in [5], the “dicamba % Injury, V4 stage” value is recorded as 2.2%.

B2: APG6-DMO: APG6 CTP operably linked to dicamba monooxygenase (SEQ ID NO:20 in Brassica, SEQ ID NO:18 in maize) (protein)
chain: MLTFVRNAWYVAALPEELSEKPLGRTILDTPLALYRQPDGVVAALLDICPHRFAPLSDGILVNGHLQCPYHGLEFDGGGQCVHNPHGNGARPASLNVRSFPVVERDALIWIWPGDPALADPGAIPDFGCRVDPAYRTVGGYGHVDCNYKLLVDNLMDLGHAQYVHRANAQTDAFDRLEREVIVGDGEIQALMKIPGGTPSVLMAKFLRGANTPVDAWNDIRWNKVSAMLNFIAVAPEGTPKEQSIHSRGTHILTPETEASCHYFFGSSRNFGIDDPEMDGVLRSWQAQALVKEDKVVVEAIERRRAYVEANGIRPAMLSCDEAAVRVSREIEKLEQLEAA
Consider B2, for which the “CIPV4 (crop injury percent)” value in assay [6] (setting [10]) stood at 2%; in assay [6] (setting [11]), 2%; in assay [6] (setting [12]) it was 4%; in assay [6] (setting [13]), 5.75%. Besides, the “CIPV8 (crop injury percent)” value in [6] (setting [10]) amounted to 3%; in assay [6] (setting [11]) it was 7.5%; in assay [6] (setting [12]), 11.25%; in [6] (setting [13]) it was 17.5%. Further, the Yield in assay [6] (setting [10]) amounted to 231.99 bu/ac; in assay [6] (setting [11]) it was 230.44 bu/ac; in assay [6] (setting [12]), 242.37 bu/ac; in assay [6] (setting [13]) it was 212.34 bu/ac. Besides, the “CIPV2 (crop injury percent)” value in [6] (dicamba 2 lbs ae/acre (4×) at V2 fb V4 fb V8, rated ten days after treatment) amounted to 0.75%; in assay [6] (setting [11]), 1.5%; in [6] (setting [12]), 1.5%; in assay [6] (setting [13]) it was 2%. Further, the “events giving plants with dicamba injury of 20% or less at each of three rating periods” value in [7] was determined as 2. In addition, in [7] (rated 7 days after each spray), the “plants (progeny) with dicamba injury of 20% or less at each of three rating periods” value is on record as 9.

B3: APG6 + H_N10: APG6 CTP operably linked to PPO H_N10, construct for soybean and cotton (protein, listed as Arabidopsis thalinana, listed as Escherichia coli)
chain: MATATTTATAAFSGVVSVGTETRRIYSFSHLQPSAAFPAKPSSFKSLKLKQSARLTRRLDHRPFVVRCMKTLILFSTRDGQTREIASYLASELKELGIQADVANVHRIEEPQWENYDRVVIGASIRYGHYHSAFQEFVKKHATRLNSMPSAFYSVNLVARKPEKRTPQTNSYARKFLMNSQWRPDRCAVIAGALRYPRYRWYDRFMIKLIMKMSGGETDTRKEVVYTDWEQVANFAREIAHLTDKPTLK
Consider B3, for which the results for the “Injury R1 stage” value in assay [8] (S-3100 5 g/ha), in [8] (S-3100 10 g/ha) and in assay [8] (S-3100 30 g/ha) were 3%, 6.5% and 15.7%, respectively. Further, the “Injury V4 stage” value in assay [8] (S-3100 5 g/ha) is given as 4.2%; in assay [8] (S-3100 10 g/ha), 7.8%; in assay [8] (S-3100 30 g/ha), 9.4%. Further, the average injury turned out to be 10.4% in assay [9] (14 multi-copy R0 cotton plants) and 26.7% in [9] (21 single-copy R0 cotton plants).

B4: 12G088600TP + H_N10: 12G088600TP CTP operably linked to PPO H_N10, construct for soybean (protein, listed as Gossypium raimondii, listed as Escherichia coli)
chain: MLNIAPSCVLASGISKPVTKMASTENKDDHSSAKRMKTLILFSTRDGQTREIASYLASELKELGIQADVANVHRIEEPQWENYDRVVIGASIRYGHYHSAFQEFVKKHATRLNSMPSAFYSVNLVARKPEKRTPQTNSYARKFLMNSQWRPDRCAVIAGALRYPRYRWYDRFMIKLIMKMSGGETDTRKEVVYTDWEQVANFAREIAHLTDKPTLK
Turning to B4, the “survival for rating at the R1 stage” value in [8] (S-3100 5, 10 and 30 g ai/ha applied at V4) is given as “did not survive”. Also, the “Injury V4 stage” value in assay [8] (S-3100 5 g/ha) is 82.7%; in [8] (S-3100 10 g/ha), 92.7%; in assay [8] (S-3100 30 g/ha), 98.2%.
